# Source: article PMC6168691, “The amino‐terminal domain of Mycobacterium tuberculosis ClpB protein plays a crucial role in its substrate disaggregation activity” (FEBS Open Bio, 2018)
# Values joined by “and” are separate entries in the source; they are usually repeats but may differ in a detail not shown here. Identical values can stand only once.
# B1: FITC-labelled casein (natural protein)
# chain: RPKHPIKHQGLPQEVLNENLLRFFVAPFPEVFGKEKVNELSKDIGSESTEDQAMEDIKQMEAESISSSEEIVPNSVEQKHIQKEDVPSERYLGYLEQLLRLKKYKVPQLEIVPNSAEERLHSMKEGIHAQQKEPMIGVNQELAYFYPELFRQFYQLDAYPSGAWYYVPLGTQYTDAPSFSDIPNPIGSENSEKTTMPLW
# modifications: FITC label
# Legend:
# FITC-labelled casein = assay: fluorescence polarisation
# [1] = biological target: Mycobacterium tuberculosis DnaK (Mycobacterium tuberculosis) (UniProt P9WMJ9)
# [2] = biological target: recombinant firefly luciferase (firefly) [luciferase: P08659]
# [3] = biological target: KJE chaperone complex (DnaK, DnaJ1, GrpE of Mycobacterium tuberculosis) (Mycobacterium tuberculosis | Mycobacterium tuberculosis H37Rv) (UniProt P9WMJ9)
# [4] = biological target: malate dehydrogenase from pig heart (pig) (UniProt P00346)
# [5] = biological target: malate dehydrogenase from pig heart (pig) (UniProt P00346); remark: listed apart in the source
# [6] = biological target: recombinant firefly luciferase (firefly) [luciferase: P08659]; remark: listed apart in the source
# [7] = biological target: N-terminally truncated Mycobacterium tuberculosis ClpB (ClpB∆N, residues 149–848) (Mycobacterium tuberculosis H37Rv) (UniProt P9WPD1); assay: SEC; Superdex-200 (1 × 60 cm), buffer A; protein loaded at 6 mg/mL, no nucleotide
# [8] = biological target: N-terminally truncated Mycobacterium tuberculosis ClpB (ClpB∆N, residues 149–848) (Mycobacterium tuberculosis H37Rv) (UniProt P9WPD1); assay: SEC; Superdex-200, buffer A; protein 0.2 mg/mL incubated with 5 mM ATP for 10 min at room temperature before loading
# [9] = biological target: N-terminally truncated Mycobacterium tuberculosis ClpB (ClpB∆N, residues 149–848) (Mycobacterium tuberculosis H37Rv) (UniProt P9WPD1); assay: SEC; Superdex-200 (1 × 60 cm), buffer A (50 mM Tris/HCl pH 7.5, 100 mM KCl, 10% glycerol, 1 mM EDTA, 1 mM DTT); protein loaded at 0.2 mg/mL, no nucleotide
# [10] = biological target: T1, Mycobacterium tuberculosis ClpB, full length (residues 1–848) (Mycobacterium tuberculosis H37Rv, UniProt P9WPD1 1-848); assay: fluorescence polarisation; conditions: both partners purified
# T1 construct: also called Mtb ClpB; WT ClpB
# [11] = biological target: T1, Mycobacterium tuberculosis ClpB, full …; assay: fluorescence polarisation; conditions: both partners purified; remark: listed apart in the source
# malate dehydrogenase from pig heart (pig), sequence (P00346 25-338): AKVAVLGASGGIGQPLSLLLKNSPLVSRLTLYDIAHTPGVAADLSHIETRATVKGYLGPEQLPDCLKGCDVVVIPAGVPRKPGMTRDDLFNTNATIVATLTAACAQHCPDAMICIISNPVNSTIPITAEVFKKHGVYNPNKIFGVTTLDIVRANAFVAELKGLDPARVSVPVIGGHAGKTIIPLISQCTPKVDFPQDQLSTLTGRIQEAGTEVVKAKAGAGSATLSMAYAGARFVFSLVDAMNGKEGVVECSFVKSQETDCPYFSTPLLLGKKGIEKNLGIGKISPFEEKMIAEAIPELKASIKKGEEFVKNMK
# recombinant firefly luciferase (firefly) [luciferase: P08659], sequence (P08659 whole entry, the tested form may be a part): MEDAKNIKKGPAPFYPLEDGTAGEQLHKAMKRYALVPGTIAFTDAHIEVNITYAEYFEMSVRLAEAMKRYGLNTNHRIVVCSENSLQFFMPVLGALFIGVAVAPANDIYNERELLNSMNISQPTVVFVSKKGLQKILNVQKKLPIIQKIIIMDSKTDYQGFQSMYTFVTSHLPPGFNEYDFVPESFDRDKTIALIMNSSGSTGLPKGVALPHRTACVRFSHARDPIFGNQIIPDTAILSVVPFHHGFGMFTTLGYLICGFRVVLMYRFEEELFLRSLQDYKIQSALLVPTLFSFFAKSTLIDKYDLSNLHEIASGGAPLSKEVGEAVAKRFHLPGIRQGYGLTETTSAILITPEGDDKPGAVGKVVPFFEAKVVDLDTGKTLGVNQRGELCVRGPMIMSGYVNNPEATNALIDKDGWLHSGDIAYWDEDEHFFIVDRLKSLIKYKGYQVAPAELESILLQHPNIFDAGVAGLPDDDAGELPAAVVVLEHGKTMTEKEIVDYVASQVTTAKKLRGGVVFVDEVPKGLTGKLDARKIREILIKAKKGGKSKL
molecule,measurement,setting,value
Mycobacterium tuberculosis ClpB F140T (from UniProt P9WPD1 1-848) (natural protein),Kd,FITC-labelled casein,24 µM
Mycobacterium tuberculosis ClpB L97D (from UniProt P9WPD1 1-848) (natural protein),Kd,FITC-labelled casein,10 µM
Mycobacterium tuberculosis ClpB L101Q (from UniProt P9WPD1 1-848) (natural protein),Kd,FITC-labelled casein,5.3 µM
Mycobacterium tuberculosis ClpB V141K (from UniProt P9WPD1 1-848) (natural protein),Kd,FITC-labelled casein,10 µM
"N-terminally truncated Mycobacterium tuberculosis ClpB (ClpB∆N, residues 149–848) (from UniProt P9WPD1 149-848) (domain or fragment)",ATPase activity of ClpB∆N left at 1 mM ADP (5 mM ATP) with 1 μM DnaK,[1],17%
same,prevention of heat aggregation of luciferase by the highest concentration of ClpB∆N in the absence of ATP,[2],24%
same,"reactivation of small aggregates of MDH by 1 μM ClpB∆N with 1 μM KJE complex (about 25% by ClpB∆N alone, 3.6% by KJE alone)",[3],32%
same,"reactivation of small aggregates of MDH by 1 μM ClpB∆N alone, percent of native MDH activity",[4],25%
same,drop of reactivation activity of ClpB∆N alone on large against small aggregates of MDH,[5],80%
same,drop of reactivation activity of ClpB∆N with KJE on large against small aggregates of MDH,[5],48%
same,"reactivation of large aggregates of luciferase by ClpB∆N against ClpB, alone and with KJE (luminescence)",[6],> 20%
same,Kd,FITC-labelled casein,6.94 µM
same,stoichiometry N,[7],6 and 4
same,stoichiometry N,[8],6
same,stoichiometry N,[9],6 and 2
B1,Kd,[10],0.88 ± 0.47 µM
same,Kd,[11],0.9 µM
